Results on one substance are retold here after patent publication US20250302947A1, “M-cell GP2-mediated lymphatic-targeted drug carriers” (Hong Kong Baptist University, priority 2022, published 2025).

Data set [1] is described as follows: Dynamic distribution of FITC-labeled polysaccharides in the gastrointestinal system and organs of mice after gavage. The format is in vivo. The following applies: 0 to 5 h after gavage. The protocol:
FTIC-RAP (10 mg in 1 mL distilled water) was orally administrated to each mouse (n=6). After the mice were sacrificed at 0, 1, 2, 3, 4, and 5 h after oral administration, blood and major tissues, including liver, spleen, kidney, stomach, small intestine, mesenteric lymph nodes (MLN), Peyer's patches (PPs), caecum, and colon, were collected and imaged using an IVIS Lumina XR in vivo imaging system (PerkinElmer) immediately. The molecular size of FITC-RAP was monitored using high-performance gel-permeation chromatography. For Western blotting (WB), PPs from different groups were collected at other time points (0, 1, 2, 3, and 4 h after oral administration) and prepared for WB. For ELISA assay, PPs were collected 24 hours after RAP treatment, then homogenized and centrifugated at 15,000 rpm for 10 min to obtain the supernatant for cytokine production assessment using ELISA kits. Similarly, the dynamic distribution of FITC-DOP control in MLN and PPs was investigated.
(§1) The tissues collected from the above dynamic distribution analysis were homogenized using a 3-fold volume of 0.1 mol/L phosphate buffer (pH 7.4) and centrifuged at 15,000 rpm for 10 min. Especially, the PP collected from the ligated loop assay model were homogenized using 200 μL PBS and centrifuged at 15,000 rpm for 10 min. The supernatant was collected and stored at −20° C. for chromatographic analysis. The separation was achieved on a TSK GMPWXL column (164× 7.8 mm i.d., 10 μm) system operated at 40° C. using an Agilent-1100 HPLC system equipped with FLD. Ammonium acetate aqueous solution (20 mM) was used as a mobile phase at a flow rate of 0.6 mL/min. The excitation wavelength and emission wavelength of FLD were 495 and 515 nm, respectively.
The intestinal contents of BALB/C mice that had received oral doses of RAP (100 mg/kg/mice) were collected at 0, 1, 2, 3, 4, 5 h after oral administration (n=6 each group) for carbohydrates detection by the phenol-sulfuric acid method. […] The plate was then cooled to RT and wiped dry to detect at A490 nm by a microplate reader. […]

A further data set has as its system GP2+M cells of PPs. The data set is described as follows: Ligated intestinal loop assay with FITC-RAP. It counts as in vivo, C57BL/6 mice. As to the method:
as §1
C57BL/6 wild-type (WT) mice, and GP2^−/− C57BL/6 mice were anesthetized using isoflurane. To prepare ligated intestinal loops, incision was made near the linea alba of the abdomen to expose the small intestine. FITC-RAP (10 mg/mL) in 100 μl PBS was injected into the ligated intestinal loop. The mice were kept under anesthesia for 1 h after the injection. PPs were excised and rinsed with PBS 5 times. The cleaned PPs were photographed using an IVIS Lumina XR and then processed for HPGPC-FLD analysis, whole-mount staining, sectioning, and further microscopic analysis.
Frozen sections of PPs from the ligated loop assay were washed three times with PBS and blocked with 5% normal goat serum in PBS for 1 h. Sections were incubated with anti-mouse GP2, anti-mouse NKM 16-2-4 antibody, or anti-mouse CD11c antibody overnight at 4° C. PPs sections were washed three times with PBS and then treated with Alexa Fluor647 secondary goat anti-rabbit, […] anti-rat antibodies for 1 h at RT, followed by three consecutive PBS washes. The cell nuclei were stained with 1 μg/mL 4′,6-diamidino-2-phenylindole (DAPI) for 15 min. Sections were washed three times with PBS and mounted with an anti-fade mounting medium. Images were captured with a Leica TCS SP8 confocal laser scanning microscope.
For whole-mount staining, mouse PPs were isolated from the small intestine and washed 3 times with 1×ice-cold PBS. The PPs were fixed in 4% paraformaldehyde overnight at 4° C. and then permeabilized with 0.1% Triton X-100 for 30 min. PPs were blocked with 5% normal goat serum in PBS for 1 h. A primary rat anti-mouse glycoprotein 2 (GP2) and 1 μg/ml DAPI in PBS were used to incubate PPs for 1 h at RT, followed by rinsing 3×5 mins with PBS. The second goat anti-rat IgG antibody conjugated with Alexa647 was further stained for 1 h at RT. PPs were washed 3×5 mins with PBS and mounted with the anti-fade reagent. Images were analyzed and captured by a confocal laser microscope (SP8, Leica Microsystems).
For the detection of RAP-induced immune responses, tumor tissues and PPs were minced into small pieces and grounded with a syringe plug. For the isolation and identification of M cell, PPs and small intestine segments collected from FITC-RAP-treated mice were incubated in PBS with 0.5 mM EDTA and stirred at 37° C. for 20 min. For the isolation and detection of dendritic cells, PPs collected from WT mice and GP2--mice were ground with a syringe plug. Tissues and cells were collected and rinsed with ice-cold PBS at 400 g for 5 min, followed by filtering through a 70 μm filter. Single cell suspensions were prepared for antibody staining. Cells were incubated with antibodies or the matching isotypes for 25 min at RT. The stained cells were rinsed twice and re-suspended in PBS and analyzed by FACSAria III (BD Biosciences). Data analysis was performed with FlowJo V10 software.

The test system of data set [2] is GP2+M cell (M-like cells). The data set is described as follows: In vitro M-cell-like model (Caco-2 / Raji B co-culture on transwell inserts). The format is cell-based, human. The following applies: confocal microscopy. As to the method:
Caco-2 cells were grown in flasks in 10% (v/v) fetal calf serum DMEM at 37° C. under a 10% CO2 water-saturated atmosphere. Caco-2 cells were grown on Transwell polyester inserts (0.3 μm pore size, 12 mm diameter, Corning Costar) coated with 100 μg/mL matrigel basement membrane matrix phenol red-free (Becton Dickinson), prepared in pure cold DMEM without phenol red. Raji B cells (5× 10^5) were resuspended in DMEM and added to the basolateral chamber of 7-day-old Caco-2 cell monolayers. The co-cultures were maintained for 5 days. Mono-culture of Caco-2 cells, cultivated as above but without the Raji B cells, were used as control. […] The transportation function of this in vitro M cell model was first validated using nanoparticle. FITC-RAP (2 mg/mL) in 400 μl DMEM were added to the upper layers of mono-culture and co-culture inserts and then incubated for 2 h at 37° C. under 5% CO2. All inserts were removed, and lower solutions were collected for chromatographic analysis. The lower solution collected from the co-culture group treated with unlabeled RAP was further used to treat RAW264.7 cells in a 96-well plate for 24 h, and the supernatants were sampled for IL-6 and IL-12 detection using ELISA kits.
Three co-culture and mono-cultures inserts were used to detect the presence of M-like cells by immunofluorescence. […]

The next data set has as its system human GP2+M cells. The data set is described as follows: Ligated loop assay on human distal ileum explants with PPs. As to the method: Twenty volunteers who needed surgery were enrolled in this study. The age of the participants ranged from 20 to 50 years. All distal ilea of the small intestine were collected after their surgeries. Twenty samples of the small intestine with PP were used in this study. In brief, the small intestines with PPs were stored in ice-cold PBS with 5% FBS after surgery. The small intestine segment was ligated with a surgical suture for the ligated loop assay. It then was injected with 10 ml FITC-RAP solution (5 mg/ml) followed by incubation at 37° C. under 5% CO2 for 2 h. PPs were collected for whole-mount staining, preparation of frozen sections, and immunofluorescence staining.

Data set [3] deals with F4/80+ macrophages / CD34+ cells in the bone marrow. As to conditions: mouse, in vivo, po.
Data set [4] shares this test system. As to conditions: mouse, in vivo; cited from earlier work.
The mark [5] stands for this setting: C57BL/6 wild-type mice, 1 hr after injection.

As to “FITC-RAP: RAP labeled with fluorescein isothiocyanate isomer I (FITC)”, the “fluorescence in the liver, kidney, spleen, mesenteric lymph nodes (MLN), and circulation” value in data set [1] is “no detectable increase”. For the same substance, in data set [1] (100 mg/kg), the “integrity in the caecum and colon (gel permeation chromatography)” value is “immediately degraded”; the “integrity in the small intestine (gel permeation chromatography)” value was “remained intact in the small intestine for several hours”. In addition, in the data set on GP2+M cells of PPs (setting [5]), the “integrity in PPs (HPGPC-FLD)” value is reported as “undegraded form” and the “localization in gut loop (whole animal imaging)” value was “concentrated in regions associated with PPs”. For the same substance, the “positive signals of FITC-RAP in PPs, GP2-/- versus WT mice” value in the data set with GP2+M cells of PPs (GP2-/- mice, IVIS imaging, HPGPC-FLD) was “significantly decreased”. Further, in the data set on GP2+M cells of PPs (wild-type mice), the “internalization into M cells (whole-mount confocal images)” value is given as “internalized into M cells” and the “uptake by GP2+M cells versus other intestinal epithelial cells (flow cytometry)” value is listed as “GP2+M cells instead of other intestinal epithelial cells accumulated FITC-RAP”. In addition, in the data set on GP2+M cells of PPs (wild-type mice, confocal microscopy), the “co-localization with GP2 receptors on the M cell apical surface (frozen sections)” value is reported as “precisely co-localized”. Besides, in data set [2], the “internalization by GP2+M cell in co-culture inserts” value is given as “internalized by GP2+M cell”. Further, in the data set on human GP2+M cells (human PP domes, whole-mount staining), the “co-localization of FITC-RAP puncta with GP2” value is on record as “most of which were positive for GP2”. Also, the “transport into human PPs by M cells” value in the data set on human GP2+M cells (human distal ileum explants, 5 mg/ml, 2 h) is “could be transported into PPs”. Also, the “binding to F4/80+ macrophages in the bone marrow” value in data set [3] is given as “could also bind”. The “binding to CD34+ cells in the bone marrow” value in data set [4] is given as “binding with CD34+ cells in the bone marrow”.
